Assay results reported in US20210324080A1.
Blank lines part the entries; values can stand above or below the substance they belong to.

Experiments:
[1] = target: monkey CTLA-4, full length, on transfected HEK293 cells (monkey); assay: FACS, 293F-cCTLA-4 cells
[2] = target: CTLA-4-hFc (immunogen A; hFc-labeled CTLA-4 extracellular domain protein) (human) (UniProt P16410); assay: blocking assay, CTLA-4 protein, competitor B7.1
[3] = target: CTLA-4-hFc (immunogen A; hFc-labeled CTLA-4 extracellular domain protein) (human) (UniProt P16410); assay: blocking assay, CTLA-4 protein, competitor B7.2
[4] = target: human CTLA-4 (Y201V), full length, on transfected cells (human) (UniProt P16410); assay: FACS, CHOK1-hCTLA-4 cells
Sequence of human CTLA-4 (Y201V), full length, on transfected cells (human) (P16410 36-223 Y201V): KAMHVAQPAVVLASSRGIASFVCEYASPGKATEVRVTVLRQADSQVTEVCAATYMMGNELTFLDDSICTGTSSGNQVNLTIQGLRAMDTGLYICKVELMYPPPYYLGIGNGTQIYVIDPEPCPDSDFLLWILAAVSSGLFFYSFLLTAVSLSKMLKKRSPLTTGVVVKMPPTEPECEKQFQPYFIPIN

[5] = target: human CTLA-4 (Y201V), full length, on transfected cells (human) (UniProt P16410); assay: FACS, human CTLA-4 expressing cells
[6] = target: monkey CTLA-4, full length, on transfected HEK293 cells (monkey); assay: FACS, monkey CTLA-4 expressing cells
[7] = target: CTLA-4-hFc (immunogen A; hFc-labeled CTLA-4 extracellular domain protein) (human) (UniProt P16410); assay: ELISA, coated CTLA-4-hFc, competitor biotin-B7.1-hFc
[8] = target: CTLA-4-hFc (immunogen A; hFc-labeled CTLA-4 extracellular domain protein) (human) (UniProt P16410); assay: ELISA, coated CTLA-4-hFc, competitor biotin-B7.2-hFc

Sequence of CTLA-4-hFc (immunogen A; hFc-labeled CTLA-4 extracellular domain protein) (human) (P16410 36-161 limits assumed): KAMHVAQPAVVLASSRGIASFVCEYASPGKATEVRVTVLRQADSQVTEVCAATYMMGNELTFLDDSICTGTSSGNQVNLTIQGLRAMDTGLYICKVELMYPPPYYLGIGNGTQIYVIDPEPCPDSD

- MFI at 0.000128 nM [1]: 2.7
- MFI at 0.0128 nM [1]: 2.6
- MFI at 0.064 nM [1]: 2.6
- MFI at 0.32 nM [1]: 2.4
- MFI at 1.6 nM [1]: 2.6
- MFI at 8 nM [1]: 2.9
- MFI at 40 nM [1]: 3.3
- MFI at 200 nM [1]: 4.9
- % Block at 0.000128 nM [2]: 0%
- % Block at 0.0128 nM [2]: -2%
- % Block at 0.064 nM [2]: 0.2%
- % Block at 1.6 nM [2]: 1.3%
- % Block at 8 nM [2]: -0.1%
- % Block at 40 nM [2]: 1.6%
- % Block at 200 nM [2]: -0.3%
- % Block at 0.000128 nM [3]: 0%
- % Block at 0.0128 nM [3]: 12.3%
- % Block at 0.064 nM [3]: 12.9%
- % Block at 0.32 nM [3]: 15.5%
- % Block at 1.6 nM [3]: 4.1%
- % Block at 8 nM [3]: 4.9%
- % Block at 40 nM [3]: 18.3%
- % Block at 200 nM [3]: 12.4%
Substance: hIgG1 (antibody)

- MFI at 0.07 nM [4]: 2
- MFI at 0.67 nM [4]: 2
- MFI at 6.67 nM [4]: 3
- MFI at 66.67 nM [4]: 8
- MFI at 0.000128 nM [5]: 3
- MFI at 0.0128 nM [5]: 3
- MFI at 0.064 nM [5]: 3
- MFI at 0.32 nM [5]: 3
- MFI at 1.6 nM [5]: 3
- MFI at 8 nM [5]: 3
- MFI at 40 nM [5]: 4
- MFI at 200 nM [5]: 6
- MFI at 0.000128 nM [6]: 3
- MFI at 0.0128 nM [6]: 3
- MFI at 0.064 nM [6]: 3
- MFI at 0.32 nM [6]: 2
- MFI at 1.6 nM [6]: 3
- MFI at 8 nM [6]: 3
- MFI at 40 nM [6]: 3
- MFI at 200 nM [6]: 5
Substance: IgG control (human IgG) (antibody)

- Inhibition rate (%) at 0.00091 nM [7]: 0%
- Inhibition rate (%) at 0.091 nM [7]: -36%
- Inhibition rate (%) at 0.274 nM [7]: -41%
- Inhibition rate (%) at 0.823 nM [7]: -37%
- Inhibition rate (%) at 2.5 nM [7]: -39%
- Inhibition rate (%) at 7.4 nM [7]: -40%
- Inhibition rate (%) at 22.2 nM [7]: -41%
- Inhibition rate (%) at 66.7 nM [7]: -10%
- Inhibition rate (%) at 0.00091 nM [8]: 0%
- Inhibition rate (%) at 0.091 nM [8]: -8%
- Inhibition rate (%) at 0.274 nM [8]: -10%
- Inhibition rate (%) at 0.823 nM [8]: -1%
- Inhibition rate (%) at 2.5 nM [8]: -7%
- Inhibition rate (%) at 7.4 nM [8]: -12%
- Inhibition rate (%) at 22.2 nM [8]: 10%
- Inhibition rate (%) at 66.7 nM [8]: 61%
Substance: hIgG4 (antibody)
